Data on four molecules can be found in patent publication US20210206880A1 (published 2021).

Where a chain is given by its changes, count along the chain named. Numbers in names are those of the source.

Assay [1] addresses T1, MbNb207^cHopQ.
T1 construct: also called cHopQNbGFP207; 58 kDa Megabody
Description: BLI (Octet), biotinylated MbNb207^cHopQ on streptavidin sensors. (BLI is a label-free optical method that tracks binding on a fibre tip over time.)

Assay [2] concerns the target T1, MbNb207^cHopQ. Description: co-crystal structure.

B1: MbNb60^c7HopQ mut2 (N277K, T270R) (designed binder)
chain: QVQLVESGGGLVQTKTTTSVIDTTNDAQNLLTQAQTIVNTLKDYCPILIAKSSSSNGGTNNANTPSWQTAGGGKNSCATFGAEFSAASDMINNAQKIVQETQQLSANQPKNITQPHNLNLNSPSSLTALAQKMLKNAQSQAEILKLANQVESDFNKLSSGHLKDYIGKCDASAISSANMTMQNQKNNWGNGCAGVEETQSLLKTSAADFNNQTPQINQAQNLANTLIQELGNNTYEQLSRLLTNDNGTNSKTSAQAINQAVNNLNERAKRLAGGTTKSPAYQATLLALRSVLGLWNSMGYAVICGGYTKSPGENNQKDFHYTDENGNGTTINCGGSTNSNGTHSYNGTNTLKADKNVSLSIEQYEKIHEAYQILSKALKQAGLAPLNSKGEKLEAHVTTSKYGSLRLSCAASGFTFSRYAMSWVRQAPGKGPEWVSAINSPGGSTSYADSVKGRFTISRDNAKNTLYLQMNSLKPDDTAVYYCAKYERATEWGHTIVAVTPLLDGVHDYWGQGTQVTVSSHHHHHHEPEA
notes: also called MbNb60^cHopQmut2; MbNb60^c7HopQ N277K T270R
As to B1, the binding result with MbNb207^cHopQ [1] was “binds”.

B2: MbNb60^c7HopQ mut3 (N277K, T270R, E197R) (designed binder)
chain: B1 chain with E197R
notes: also called MbNb60^cHopQmut3; MbNb60^c7HopQ N277K T270R E197R
B2: the binding result in the assay with MbNb207^cHopQ [1] was “binds”.

B3: MbNb60^cYgjkE2 (designed binder)
chain: QVQLVESGGGLVYKEETQSGLNNYARVVEKGQYDSLEIPAQVAASWESGRDDAAVFGFIDKEQLDKYVANGGKRSDWTVKFAENRSQDGTLLGYSLLQESVDQASYMYSDNHYLAEMATILGKPEEAKRYRQLAQQLADYINTCMFDPTTQFYYDVRIEDKPLANGCAGKPIVERGKGPEGWSPLFNGAATQANADAVVKVMLDPKEFNTFVPLGTAALTNPAFGADIYWRGRVWVDQFWFGLKGMERYGYRDDALKLADTFFRHAKGLTADGPIQENYNPLTGAQQGAPNFSWSAAHLYMLYNDFFRKQASGGGSGGGGSGGGGSGNADNYKNVINRTGAPQYMKDYDYDDHQRFNPFFDLGAWHGHLLPDGPNTMGGFPGVALLTEEYINFMASNFDRLTVWQDGKKVDFTLEAYSIPGALVQKLTAKDVQVEMTLRFATPRTSLLETKITSNKPLDLVWDGELLEKLEAKEGKPLSDKTIAGEYPDYQRKISATRDGLKVTFGKVRATWDLLTSGESEYQVHKSLPVQTEINGNRFTSKAHINGSTTLYTTYSHLLTAQEVSKEQMQIRDILARPAFYLTASQQRWEEYLKKGLTNPDATPEQTRVAVKAIETLNGNWRSPGGAVKFNTVTPSVTGRWFSGNQTWPWDTWKQAFAMAHFNPDIAKENIRAVFSWQIQPGDSVRPQDVGFVPDLIAWNLSPERGGDGGNWNERNTKPSLAAWSVMEVYNVTQDKTWVAEMYPKLVAYHDWWLRNRDHNGNGVPEYGATRDKAHNTESGEMLFTVKKDSLRLSCAASGFTFSRYAMSWVRQAPGKGPEWVSAINSPGGSTSYADSVKGRFTISRDNAKNTLYLQMNSLKPDDTAVYYCAKYERATEWGHTIVAVTPLLDGVHDYWGQGTQVTVSSHHHHHHEPEA
notes: also called Mb^Nb60cYgjkQE2
In the case of B3, the binding result in the assay with MbNb207^cHopQ [1] is reported as “binds”.

B4: Nb60 HopQ-specific Nanobody (VHH)
VHH: QVQLQESGGGLVQPGGSLRLSCAASGFTFSRYAMSWVRQAPGKGPEWVSAINSPGGSTSYADSVKGRFTISRDNAKNTLYLQMNSLKPDDTAVYYCAKYERATEWGHTIVAVTPLLDGVHDYWGQGTQVTVSS
notes: also called cHopQ-specific Nanobody
Consider B4, for which the binding result with MbNb207^cHopQ [2] was “binds”.
